Assay results as given in patent US20240018252A1.

Molecular target: human CD3 (huCD3ed) (human) (UniProt P07766)
Test: Biacore SPR, antibody as ligand, hCD3ed 80 nM-0.64 nM, kinetic fit

Chain of human CD3 (huCD3ed) (human) (P07766 23-126, chain 1 of 2): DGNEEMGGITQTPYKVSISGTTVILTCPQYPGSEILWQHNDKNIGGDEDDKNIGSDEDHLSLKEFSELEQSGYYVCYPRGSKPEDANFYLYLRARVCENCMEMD
Chain of human CD3 (huCD3ed) (human) (P04234 22-105, chain 2 of 2, further chain): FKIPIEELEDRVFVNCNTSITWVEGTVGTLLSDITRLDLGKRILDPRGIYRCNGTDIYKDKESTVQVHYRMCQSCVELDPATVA

SP34 (antibody)
Kd: 10.7 nM | t1/2: 3.8 min
